{
  "source": "patent US20170037110A1",
  "about": "(IMMATICS BIOTECHNOLOGIES, published 2017)",
  "binders": {"B1": {"name": "KIAENVEEV (peptide)", "peptide": "KIAENVEEV"}, "B2": {"name": "ALDDGTPAL (peptide)", "peptide": "ALDDGTPAL"}, "B3": {"name": "VLYSYTIITV (peptide)", "peptide": "VLYSYTIITV"}, "B4": {"name": "YLFENISQL (peptide)", "peptide": "YLFENISQL"}, "B5": {"name": "LLFGSVQEV (peptide)", "peptide": "LLFGSVQEV"}, "B6": {"name": "ALGPEGGRV (peptide)", "peptide": "ALGPEGGRV"}, "B7": {"name": "QLLDADGFLNV (peptide)", "peptide": "QLLDADGFLNV"}, "B8": {"name": "KVLEVTEEFGV (peptide)", "peptide": "KVLEVTEEFGV"}, "B9": {"name": "RQISIRGIVGV (peptide)", "peptide": "RQISIRGIVGV"}, "B10": {"name": "FLATFPLAAV (peptide)", "peptide": "FLATFPLAAV"}, "B11": {"name": "YLYSVEIKL (peptide)", "peptide": "YLYSVEIKL"}, "B12": {"name": "KILQQLVTL (peptide)", "peptide": "KILQQLVTL"}, "B13": {"name": "KVLNELYTV (peptide)", "peptide": "KVLNELYTV"}, "B14": {"name": "RLVDYLEGI (peptide)", "peptide": "RLVDYLEGI"}, "B15": {"name": "ALLEGVNTV (peptide)", "peptide": "ALLEGVNTV"}, "B16": {"name": "SLYPGTETMGL (peptide)", "peptide": "SLYPGTETMGL"}, "B17": {"name": "KISPVTFSV (peptide)", "peptide": "KISPVTFSV"}, "B18": {"name": "FQIDPHSGLVTV (peptide)", "peptide": "FQIDPHSGLVTV"}, "B19": {"name": "ALLPQPKNLTV (peptide)", "peptide": "ALLPQPKNLTV"}, "B20": {"name": "YQQAQVPSV (peptide)", "peptide": "YQQAQVPSV"}, "B21": {"name": "ALLDQQGSRWTL (peptide)", "peptide": "ALLDQQGSRWTL"}, "B22": {"name": "YLNHLEPPV (peptide)", "peptide": "YLNHLEPPV"}, "B23": {"name": "LLLPLQILL (peptide)", "peptide": "LLLPLQILL"}, "B24": {"name": "RLQETLSAA (peptide)", "peptide": "RLQETLSAA"}, "B25": {"name": "YLLPEEYTSTL (peptide)", "peptide": "YLLPEEYTSTL"}, "B26": {"name": "ILFEDIFDV (peptide)", "peptide": "ILFEDIFDV"}, "B27": {"name": "KTINKVPTV (peptide)", "peptide": "KTINKVPTV"}, "B28": {"name": "YLMDINGKMWL (peptide)", "peptide": "YLMDINGKMWL"}, "B29": {"name": "FLLDLDPLLL (peptide)", "peptide": "FLLDLDPLLL"}, "B30": {"name": "MLLEAPGIFL (peptide)", "peptide": "MLLEAPGIFL"}, "B31": {"name": "TLFFQQNAL (peptide)", "peptide": "TLFFQQNAL"}, "B32": {"name": "ALPLFVITV (peptide)", "peptide": "ALPLFVITV"}, "B33": {"name": "KILDADIQL (peptide)", "peptide": "KILDADIQL"}, "B34": {"name": "ALAQYLITA (peptide)", "peptide": "ALAQYLITA"}, "B35": {"name": "VLQEGKLQKLAQL (peptide)", "peptide": "VLQEGKLQKLAQL"}, "B36": {"name": "LLDSASAGLYL (peptide)", "peptide": "LLDSASAGLYL"}, "B37": {"name": "NLPEYLPFV (peptide)", "peptide": "NLPEYLPFV"}, "B38": {"name": "FLIDDKGYTL (peptide)", "peptide": "FLIDDKGYTL"}, "B39": {"name": "GLFPVTPEAV (peptide)", "peptide": "GLFPVTPEAV"}, "B40": {"name": "NLLELFVQL (peptide)", "peptide": "NLLELFVQL"}, "B41": {"name": "ALTEIAFVV (peptide)", "peptide": "ALTEIAFVV"}, "B42": {"name": "ALQDVPLSSV (peptide)", "peptide": "ALQDVPLSSV"}, "B43": {"name": "LLWAGTAFQV (peptide)", "peptide": "LLWAGTAFQV"}, "B44": {"name": "LLWPGAALL (peptide)", "peptide": "LLWPGAALL"}, "B45": {"name": "GLVGNPLPSV (peptide)", "peptide": "GLVGNPLPSV"}, "B46": {"name": "KLIESKHEV (peptide)", "peptide": "KLIESKHEV"}, "B47": {"name": "LLLNAVLTV (peptide)", "peptide": "LLLNAVLTV"}, "B48": {"name": "SLNDEVPEV (peptide)", "peptide": "SLNDEVPEV"}, "B49": {"name": "KLFDVDEDGYI (peptide)", "peptide": "KLFDVDEDGYI"}, "B50": {"name": "LLQEGQALEYV (peptide)", "peptide": "LLQEGQALEYV"}, "B51": {"name": "SLVGLLLYL (peptide)", "peptide": "SLVGLLLYL"}, "B52": {"name": "GAAKDLPGV (peptide)", "peptide": "GAAKDLPGV"}, "B53": {"name": "GLFADLLPRL (peptide)", "peptide": "GLFADLLPRL"}, "B54": {"name": "SLLDEIRAV (peptide)", "peptide": "SLLDEIRAV"}, "B55": {"name": "FLFDEEIEQI (peptide)", "peptide": "FLFDEEIEQI"}, "B56": {"name": "RVANLHFPSV (peptide)", "peptide": "RVANLHFPSV"}, "B57": {"name": "FTLGNVVGMYL (peptide)", "peptide": "FTLGNVVGMYL"}, "B58": {"name": "KIFEMLEGV (peptide)", "peptide": "KIFEMLEGV"}, "B59": {"name": "YLMEGSYNKVFL (peptide)", "peptide": "YLMEGSYNKVFL"}, "B60": {"name": "ALDEMGDLLQL (peptide)", "peptide": "ALDEMGDLLQL"}, "B61": {"name": "FLIANVLYL (peptide)", "peptide": "FLIANVLYL"}, "B62": {"name": "ALQRKLPYV (peptide)", "peptide": "ALQRKLPYV"}, "B63": {"name": "FGLDLVTEL (peptide)", "peptide": "FGLDLVTEL"}, "B64": {"name": "FLSSLTETI (peptide)", "peptide": "FLSSLTETI"}, "B65": {"name": "ALWDQDNLSV (peptide)", "peptide": "ALWDQDNLSV"}, "B66": {"name": "RLWEEGEELEL (peptide)", "peptide": "RLWEEGEELEL"}, "B67": {"name": "GLTSTNAEV (peptide)", "peptide": "GLTSTNAEV"}, "B68": {"name": "KMLDGASFTL (peptide)", "peptide": "KMLDGASFTL"}, "B69": {"name": "SLWPDPMEV (peptide)", "peptide": "SLWPDPMEV"}},
  "data": [
    {"biological_target": "T1, HLA-A*02:01 (human)", "T1 construct": "monomers captured on streptavidin plates; also called MHC class I", "assay": "UV peptide exchange ELISA", "source_text": "Candidate peptides for T cell based therapies according to the present invention were further tested for their MHC binding capacity (affinity). The individual peptide-MHC complexes were produced by UV-ligand exchange, where a UV-sensitive peptide is cleaved upon UV-irradiation, and exchanged with the peptide of interest as analyzed. Only peptide candidates that can effectively bind and stabilize the peptide-receptive MHC molecules prevent dissociation of the MHC complexes. To determine the yield of the exchange reaction, an ELISA was performed based on the detection of the light chain (p2m) of stabilized MHC complexes.\n96 well MAXISorp plates (NUNC) were coated over night with 2 μg/ml streptavidin in PBS at room temperature, washed 4× and blocked for 1 h at 37° C. in 2% BSA containing blocking buffer. […] Peptide-MHC monomers of the UV-exchange reaction were diluted 100 fold in blocking buffer. Samples were incubated for 1h at 37° C., washed four times, incubated with 2 μg/ml HRP conjugated anti-p2m for 1h at 37° C., washed again and detected with TMB solution that is stopped with […]. Absorption was measured at 450 nm.", "units": {"peptide exchange yield": "%"}, "values": [
      {"binder": "B1", "peptide exchange yield": "20 to 50"},
      {"binder": "B2", "peptide exchange yield": "20 to 50"},
      {"binder": "B3", "peptide exchange yield": "20 to 50"},
      {"binder": "B4", "peptide exchange yield": "50 to 75"},
      {"binder": "B5", "peptide exchange yield": "50 to 75"},
      {"binder": "B6", "peptide exchange yield": "20 to 50"},
      {"binder": "B7", "peptide exchange yield": "50 to 75"},
      {"binder": "B8", "peptide exchange yield": "50 to 75"},
      {"binder": "B9", "peptide exchange yield": "50 to 75"},
      {"binder": "B10", "peptide exchange yield": "≥ 75"},
      {"binder": "B11", "peptide exchange yield": "≥ 75"},
      {"binder": "B12", "peptide exchange yield": "50 to 75"},
      {"binder": "B13", "peptide exchange yield": "50 to 75"},
      {"binder": "B14", "peptide exchange yield": "50 to 75"},
      {"binder": "B15", "peptide exchange yield": "50 to 75"},
      {"binder": "B16", "peptide exchange yield": "50 to 75"},
      {"binder": "B17", "peptide exchange yield": "50 to 75"},
      {"binder": "B18", "peptide exchange yield": "20 to 50"},
      {"binder": "B19", "peptide exchange yield": "50 to 75"},
      {"binder": "B20", "peptide exchange yield": "50 to 75"},
      {"binder": "B21", "peptide exchange yield": "50 to 75"},
      {"binder": "B22", "peptide exchange yield": "50 to 75"},
      {"binder": "B23", "peptide exchange yield": "50 to 75"},
      {"binder": "B24", "peptide exchange yield": "50 to 75"},
      {"binder": "B25", "peptide exchange yield": "≥ 75"},
      {"binder": "B26", "peptide exchange yield": "50 to 75"},
      {"binder": "B27", "peptide exchange yield": "50 to 75"},
      {"binder": "B28", "peptide exchange yield": "50 to 75"},
      {"binder": "B29", "peptide exchange yield": "50 to 75"},
      {"binder": "B30", "peptide exchange yield": "50 to 75"},
      {"binder": "B31", "peptide exchange yield": "20 to 50"},
      {"binder": "B32", "peptide exchange yield": "50 to 75"},
      {"binder": "B33", "peptide exchange yield": "≥ 75"},
      {"binder": "B34", "peptide exchange yield": "50 to 75"},
      {"binder": "B35", "peptide exchange yield": "50 to 75"},
      {"binder": "B36", "peptide exchange yield": "50 to 75"},
      {"binder": "B37", "peptide exchange yield": "50 to 75"},
      {"binder": "B38", "peptide exchange yield": "20 to 50"},
      {"binder": "B39", "peptide exchange yield": "50 to 75"},
      {"binder": "B40", "peptide exchange yield": "50 to 75"},
      {"binder": "B41", "peptide exchange yield": "≥ 75"},
      {"binder": "B42", "peptide exchange yield": "50 to 75"},
      {"binder": "B43", "peptide exchange yield": "50 to 75"},
      {"binder": "B44", "peptide exchange yield": "20 to 50"},
      {"binder": "B45", "peptide exchange yield": "≥ 75"},
      {"binder": "B46", "peptide exchange yield": "20 to 50"},
      {"binder": "B47", "peptide exchange yield": "20 to 50"},
      {"binder": "B48", "peptide exchange yield": "20 to 50"},
      {"binder": "B49", "peptide exchange yield": "50 to 75"},
      {"binder": "B50", "peptide exchange yield": "20 to 50"},
      {"binder": "B51", "peptide exchange yield": "≥ 75"},
      {"binder": "B52", "peptide exchange yield": "20 to 50"},
      {"binder": "B53", "peptide exchange yield": "50 to 75"},
      {"binder": "B54", "peptide exchange yield": "50 to 75"},
      {"binder": "B55", "peptide exchange yield": "50 to 75"},
      {"binder": "B56", "peptide exchange yield": "50 to 75"},
      {"binder": "B57", "peptide exchange yield": "≥ 75"},
      {"binder": "B58", "peptide exchange yield": "50 to 75"},
      {"binder": "B59", "peptide exchange yield": "20 to 50"},
      {"binder": "B60", "peptide exchange yield": "50 to 75"},
      {"binder": "B61", "peptide exchange yield": "10 to 20"},
      {"binder": "B62", "peptide exchange yield": "50 to 75"},
      {"binder": "B63", "peptide exchange yield": "50 to 75"},
      {"binder": "B64", "peptide exchange yield": "50 to 75"},
      {"binder": "B65", "peptide exchange yield": "20 to 50"},
      {"binder": "B66", "peptide exchange yield": "50 to 75"},
      {"binder": "B67", "peptide exchange yield": "20 to 50"},
      {"binder": "B68", "peptide exchange yield": "50 to 75"},
      {"binder": "B69", "peptide exchange yield": "50 to 75"}
    ]}
  ]
}
